{
  "source": "patent US7459544",
  "about": "(GENETICS INSTITUTE, dated 2008)",
  "binders": {"B1": {"name": "human B7-2 immunoglobulin fusion protein (hB7-2Ig, full extracellular domain) (Fc fusion)", "chain": "APLKIQAYFNETADLPCQFANSQNQSLSELVVFWQDQENLVLNEVYLGKEKFDSVHSKYMGRTSFDSDSWTLRLHNLQIKDKGLYQCIIHHKKPTGMIRIHQMNSELSVLANFSQPEIVPISNITENVYINLTCSSIHGYPEPKKMSVLLRTKNSTIEYDGIMQKSQDNVTELYDVSISLSVSFPDVTSNMTIFCILETDKTRLLSSPFSIELEDPQPPPD", "modifications": "Biotinylated or 125I-labelled in some assays.", "notes": "Coated on plates, biotinylated or 125I-labelled depending on the assay; also called human B7.2-Ig; full-length B7-2; not shown: Junction residue Q and the hinge-CH2-CH3 of human IgG1 or IgG4 (hinge Cys to Ser, optionally CH2 mutated)"}},
  "biological_target": "Human CTLA4 fusion protein (CTLA4Ig) (human, UniProt P16410 36-161)",
  "sequence (P16410 36-161)": "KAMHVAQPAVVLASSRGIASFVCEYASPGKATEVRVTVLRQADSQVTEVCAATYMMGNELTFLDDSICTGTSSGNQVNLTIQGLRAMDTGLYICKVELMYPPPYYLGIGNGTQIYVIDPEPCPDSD",
  "assay": "solid phase competition on immobilized CTLA4-Ig; reference B7-1Ig",
  "data": [
    {"binder": "B1", "values": [
      {"measurement": "fold lower avidity than B7-1", "result": "~2", "unit": "fold"}
    ]}
  ]
}
